Results reported in patent US20260263609A1 (NEW YORK UNIVERSITY, published 2026).

biological target: T1, NRAS (human, UniProt P01111 1-174, limits assumed); assay: yeast display, cells sorted for binding to NRAS (WT);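 also: Yeast-displayed monobody variants with one or two residue substitutions, monobody sequences read from cells recovered by sorting for binding to wild-type NRAS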
T1 construct: also called Neuroblastoma-RAS; NRAS (WT)

binding result	Binder
binds	Mb(NRAS_24) with the FG loop of SEQ ID NO: 15 (designed binder, length of the loop entry not visible) VSSVPTKLEVVAATPTSLLISWDAPAVTVDFYVITYGETGGYAWAYQEFKVPGSKSTATISGLSPGVDYTITVYASQVIGAIWKYYSPISINYRT
binds	Mb(NRAS_24) with the FG loop of SEQ ID NO: 49 (designed binder, length of the loop entry not visible) VSSVPTKLEVVAATPTSLLISWDAPAVTVDFYVITYGETGGYAWAYQEFKVPGSKSTATISGLSPGVDYTITVYAYQVIHYIWKYYSPISINYRT
binds	Mb(NRAS_24) with the FG loop of SEQ ID NO: 16 (designed binder, length of the loop entry not visible) VSSVPTKLEVVAATPTSLLISWDAPAVTVDFYVITYGETGGYAWAYQEFKVPGSKSTATISGLSPGVDYTITVYAYHVIGAIWKYYSPISINYRT
binds	Mb(NRAS_24) with the FG loop of SEQ ID NO: 17 (designed binder, length of the loop entry not visible) VSSVPTKLEVVAATPTSLLISWDAPAVTVDFYVITYGETGGYAWAYQEFKVPGSKSTATISGLSPGVDYTITVYAYQIDGAIWKYYSPISINYRT
binds	Mb(NRAS_24) with the FG loop of SEQ ID NO: 20 (designed binder, length of the loop entry not visible) VSSVPTKLEVVAATPTSLLISWDAPAVTVDFYVITYGETGGYAWAYQEFKVPGSKSTATISGLSPGVDYTITVYAYQIKGAIWKYYSPISINYRT
binds	Mb(NRAS_24) with the FG loop of SEQ ID NO: 39 (designed binder, length of the loop entry not visible) VSSVPTKLEVVAATPTSLLISWDAPAVTVDFYVITYGETGGYAWAYQEFKVPGSKSTATISGLSPGVDYTITVYAYQVIDHIWKYYSPISINYRT
binds	Mb(NRAS_24) with the FG loop of SEQ ID NO: 52 (designed binder, length of the loop entry not visible) VSSVPTKLEVVAATPTSLLISWDAPAVTVDFYVITYGETGGYAWAYQEFKVPGSKSTATISGLSPGVDYTITVYAYQVIKYIWKYYSPISINYRT
binds	Mb(NRAS_24) with the FG loop of SEQ ID NO: 25 (designed binder, length of the loop entry not visible) VSSVPTKLEVVAATPTSLLISWDAPAVTVDFYVITYGETGGYAWAYQEFKVPGSKSTATISGLSPGVDYTITVYAYQLDGAIWKYYSPISINYRT
binds	Mb(NRAS_24) with the FG loop of SEQ ID NO: 34 (designed binder, length of the loop entry not visible) VSSVPTKLEVVAATPTSLLISWDAPAVTVDFYVITYGETGGYAWAYQEFKVPGSKSTATISGLSPGVDYTITVYAYQTVGAIWKYYSPISINYRT
binds	Mb(NRAS_24) with the FG loop of SEQ ID NO: 36 (designed binder, length of the loop entry not visible) VSSVPTKLEVVAATPTSLLISWDAPAVTVDFYVITYGETGGYAWAYQEFKVPGSKSTATISGLSPGVDYTITVYAYQVIAHIWKYYSPISINYRT
binds	Mb(NRAS_24) with the FG loop of SEQ ID NO: 29 (designed binder, length of the loop entry not visible) VSSVPTKLEVVAATPTSLLISWDAPAVTVDFYVITYGETGGYAWAYQEFKVPGSKSTATISGLSPGVDYTITVYAYQLYGAIWKYYSPISINYRT
binds	Mb(NRAS_24) with the FG loop of SEQ ID NO: 22 (designed binder, length of the loop entry not visible) VSSVPTKLEVVAATPTSLLISWDAPAVTVDFYVITYGETGGYAWAYQEFKVPGSKSTATISGLSPGVDYTITVYAYQIRGAIWKYYSPISINYRT
binds	Mb(NRAS_24) with the FG loop of SEQ ID NO: 48 (designed binder, length of the loop entry not visible) VSSVPTKLEVVAATPTSLLISWDAPAVTVDFYVITYGETGGYAWAYQEFKVPGSKSTATISGLSPGVDYTITVYAYQVIHSIWKYYSPISINYRT
binds	Mb(NRAS_24) with the FG loop of SEQ ID NO: 51 (designed binder, length of the loop entry not visible) VSSVPTKLEVVAATPTSLLISWDAPAVTVDFYVITYGETGGYAWAYQEFKVPGSKSTATISGLSPGVDYTITVYAYQVIKSIWKYYSPISINYRT
binds	Mb(NRAS_24) with the FG loop of SEQ ID NO: 42 (designed binder, length of the loop entry not visible) VSSVPTKLEVVAATPTSLLISWDAPAVTVDFYVITYGETGGYAWAYQEFKVPGSKSTATISGLSPGVDYTITVYAYQVIEHIWKYYSPISINYRT
binds	Mb(NRAS_24) with the FG loop of SEQ ID NO: 38 (designed binder, length of the loop entry not visible) VSSVPTKLEVVAATPTSLLISWDAPAVTVDFYVITYGETGGYAWAYQEFKVPGSKSTATISGLSPGVDYTITVYAYQVIAYIWKYYSPISINYRT
binds	Mb(NRAS_24) with the FG loop of SEQ ID NO: 18 (designed binder, length of the loop entry not visible) VSSVPTKLEVVAATPTSLLISWDAPAVTVDFYVITYGETGGYAWAYQEFKVPGSKSTATISGLSPGVDYTITVYAYQIEGAIWKYYSPISINYRT
binds	Mb(NRAS_24) with the FG loop of SEQ ID NO: 24 (designed binder, length of the loop entry not visible) VSSVPTKLEVVAATPTSLLISWDAPAVTVDFYVITYGETGGYAWAYQEFKVPGSKSTATISGLSPGVDYTITVYAYQIYGAIWKYYSPISINYRT
binds	Mb(NRAS_24) with the FG loop of SEQ ID NO: 46 (designed binder, length of the loop entry not visible) VSSVPTKLEVVAATPTSLLISWDAPAVTVDFYVITYGETGGYAWAYQEFKVPGSKSTATISGLSPGVDYTITVYAYQVIGALWKYYSPISINYRT

binding result	Binder
binds	Mb(NRAS_24) with the FG loop of SEQ ID NO: 30 (designed binder, length of the loop entry not visible) VSSVPTKLEVVAATPTSLLISWDAPAVTVDFYVITYGETGGYAWAYQEFKVPGSKSTATISGLSPGVDYTITVYAYQTDGAIWKYYSPISINYRT
binds	Mb(NRAS_24) with the FG loop of SEQ ID NO: 28 (designed binder, length of the loop entry not visible) VSSVPTKLEVVAATPTSLLISWDAPAVTVDFYVITYGETGGYAWAYQEFKVPGSKSTATISGLSPGVDYTITVYAYQLLGAIWKYYSPISINYRT
binds	Mb(NRAS_24) with the FG loop of SEQ ID NO: 23 (designed binder, length of the loop entry not visible) VSSVPTKLEVVAATPTSLLISWDAPAVTVDFYVITYGETGGYAWAYQEFKVPGSKSTATISGLSPGVDYTITVYAYQIVGAIWKYYSPISINYRT
binds	Mb(NRAS_24) with the FG loop of SEQ ID NO: 45 (designed binder, length of the loop entry not visible) VSSVPTKLEVVAATPTSLLISWDAPAVTVDFYVITYGETGGYAWAYQEFKVPGSKSTATISGLSPGVDYTITVYAYQVIGAICKYYSPISINYRT
binds	Mb(NRAS_24) with the FG loop of SEQ ID NO: 21 (designed binder, length of the loop entry not visible) VSSVPTKLEVVAATPTSLLISWDAPAVTVDFYVITYGETGGYAWAYQEFKVPGSKSTATISGLSPGVDYTITVYAYQILGAIWKYYSPISINYRT
binds	Mb(NRAS_24) with the FG loop of SEQ ID NO: 26 (designed binder, length of the loop entry not visible) VSSVPTKLEVVAATPTSLLISWDAPAVTVDFYVITYGETGGYAWAYQEFKVPGSKSTATISGLSPGVDYTITVYAYQLEGAIWKYYSPISINYRT
binds	Mb(NRAS_24) with the FG loop of SEQ ID NO: 33 (designed binder, length of the loop entry not visible) VSSVPTKLEVVAATPTSLLISWDAPAVTVDFYVITYGETGGYAWAYQEFKVPGSKSTATISGLSPGVDYTITVYAYQTLGAIWKYYSPISINYRT
binds	Mb(NRAS_24) with the FG loop of SEQ ID NO: 27 (designed binder, length of the loop entry not visible) VSSVPTKLEVVAATPTSLLISWDAPAVTVDFYVITYGETGGYAWAYQEFKVPGSKSTATISGLSPGVDYTITVYAYQLHGAIWKYYSPISINYRT
binds	Mb(NRAS_24) with the FG loop of SEQ ID NO: 41 (designed binder, length of the loop entry not visible) VSSVPTKLEVVAATPTSLLISWDAPAVTVDFYVITYGETGGYAWAYQEFKVPGSKSTATISGLSPGVDYTITVYAYQVIDYIWKYYSPISINYRT
binds	Mb(NRAS_24) with the FG loop of SEQ ID NO: 43 (designed binder, length of the loop entry not visible) VSSVPTKLEVVAATPTSLLISWDAPAVTVDFYVITYGETGGYAWAYQEFKVPGSKSTATISGLSPGVDYTITVYAYQVIESIWKYYSPISINYRT
binds	Mb(NRAS_24) with the FG loop of SEQ ID NO: 19 (designed binder, length of the loop entry not visible) VSSVPTKLEVVAATPTSLLISWDAPAVTVDFYVITYGETGGYAWAYQEFKVPGSKSTATISGLSPGVDYTITVYAYQIHGAIWKYYSPISINYRT
binds	Mb(NRAS_24) with the FG loop of SEQ ID NO: 50 (designed binder, length of the loop entry not visible) VSSVPTKLEVVAATPTSLLISWDAPAVTVDFYVITYGETGGYAWAYQEFKVPGSKSTATISGLSPGVDYTITVYAYQVIKHIWKYYSPISINYRT
binds	Mb(NRAS_24) with the FG loop of SEQ ID NO: 32 (designed binder, length of the loop entry not visible) VSSVPTKLEVVAATPTSLLISWDAPAVTVDFYVITYGETGGYAWAYQEFKVPGSKSTATISGLSPGVDYTITVYAYQTHGAIWKYYSPISINYRT
binds	Mb(NRAS_24) with the FG loop of SEQ ID NO: 37 (designed binder, length of the loop entry not visible) VSSVPTKLEVVAATPTSLLISWDAPAVTVDFYVITYGETGGYAWAYQEFKVPGSKSTATISGLSPGVDYTITVYAYQVIASIWKYYSPISINYRT
binds	Mb(NRAS_24) with the FG loop of SEQ ID NO: 31 (designed binder, length of the loop entry not visible) VSSVPTKLEVVAATPTSLLISWDAPAVTVDFYVITYGETGGYAWAYQEFKVPGSKSTATISGLSPGVDYTITVYAYQTEGAIWKYYSPISINYRT
binds	Mb(NRAS_24) with the FG loop of SEQ ID NO: 35 (designed binder, length of the loop entry not visible) VSSVPTKLEVVAATPTSLLISWDAPAVTVDFYVITYGETGGYAWAYQEFKVPGSKSTATISGLSPGVDYTITVYAYQTYGAIWKYYSPISINYRT
binds	Mb(NRAS_24) with the FG loop of SEQ ID NO: 40 (designed binder, length of the loop entry not visible) VSSVPTKLEVVAATPTSLLISWDAPAVTVDFYVITYGETGGYAWAYQEFKVPGSKSTATISGLSPGVDYTITVYAYQVIDSIWKYYSPISINYRT
binds	Mb(NRAS_24) with the FG loop of SEQ ID NO: 44 (designed binder, length of the loop entry not visible) VSSVPTKLEVVAATPTSLLISWDAPAVTVDFYVITYGETGGYAWAYQEFKVPGSKSTATISGLSPGVDYTITVYAYQVIEYIWKYYSPISINYRT
binds	Mb(NRAS_24) with the FG loop of SEQ ID NO: 47 (designed binder, length of the loop entry not visible) VSSVPTKLEVVAATPTSLLISWDAPAVTVDFYVITYGETGGYAWAYQEFKVPGSKSTATISGLSPGVDYTITVYAYQVIHHIWKYYSPISINYRT
